From paper PMC9952706

Molecular target: T1, AdpA (His-tagged) (Streptomyces coelicolor M145) (UniProt Q9L062)
T1 sequence: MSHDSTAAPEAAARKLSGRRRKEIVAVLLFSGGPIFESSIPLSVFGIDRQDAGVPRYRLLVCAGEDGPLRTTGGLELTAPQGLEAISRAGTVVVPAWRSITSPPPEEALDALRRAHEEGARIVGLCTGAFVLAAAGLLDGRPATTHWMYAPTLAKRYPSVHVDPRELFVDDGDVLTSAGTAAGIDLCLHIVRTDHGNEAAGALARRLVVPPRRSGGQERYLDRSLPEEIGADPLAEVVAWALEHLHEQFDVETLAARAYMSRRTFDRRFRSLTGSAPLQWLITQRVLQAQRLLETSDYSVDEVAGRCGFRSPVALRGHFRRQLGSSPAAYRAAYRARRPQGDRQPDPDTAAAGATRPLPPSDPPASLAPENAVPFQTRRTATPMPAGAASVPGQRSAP
Assay: EMSA
Settings: EMSA: 20 mM Tris-HCl pH 8.0, 2 mM EDTA, 20 mM KCl, 0.5 mM DTT, 4% Ficoll-400, 2 µg poly(dI-dC), room temperature, 25 min; 20 nM probe

In the case of “GCGGCAGATCAGGACCCTCCAGGACTTCGGGTTCGACCTGGAGGAGACCCGCCCCTTCGTGGAGTGCCTGCGCGCCGGGCACCCGGAGGGCGACTCCTGTCCGGCGTCCCTCGTGGTCTACCGGCGCAAGCTGGCCGAGCTGGACACGCTGATCGAGCAGCTCACGTCGGTGCGCGCGCAGGTCGCCGCACAGCTGACGCGGGCCGAGGCGGCGGCTCCGGGGGGTCCGGAGCCCAAGTGCGAACTGGGAGGACACGGATGAAGACCAGCGGGGTGCCCGAGGTGACGGACGCGGACTT (double strand) [trxA2 (sco5438) promoter probe]”, the binding is reported as “binds”.
With “TCATGGGCGCGCGTCCTGCGCACGCCGCCGGTTCGGTACTCCGAAGGTGCAGCGTCCGCGGAGCCGCGGAGATTCCCGCCCACCGTCGCATTTCGGCCACGCGAGGGCCCGGCGAGTGATGAGGATCTCGCCGCACACGGGCACCAAGGCTGGTA (double strand) [trxA5 (sco1084) promoter probe]” the binding was “binds”.
